Source: paper PMC11402128, “The stability of FKBP9 maintained by BiP is crucial for glioma progression” (Genes & Diseases, 2023)

Target: T1, human recombinant protein BiP (TP305859, Origene) (human, UniProt P11021 19-654)
T1 construct: also called purified BiP; source: bought: Origene (TP305859)
Test: SPR; BScreen LB 991 label-free microarray system; proteins printed on the chip and photo-cross-linked; analyte proteins at 200, 400, 800, 1600 and 3200 nM in 10 mM HEPES pH 7.0, 3 mM EDTA, 150 mM NaCl, 0.005% P20; 5 uL/min, 10 min association, 6 min dissociation; constants by slope fitting
Conditions: both partners purified

T1 sequence (P11021 19-654): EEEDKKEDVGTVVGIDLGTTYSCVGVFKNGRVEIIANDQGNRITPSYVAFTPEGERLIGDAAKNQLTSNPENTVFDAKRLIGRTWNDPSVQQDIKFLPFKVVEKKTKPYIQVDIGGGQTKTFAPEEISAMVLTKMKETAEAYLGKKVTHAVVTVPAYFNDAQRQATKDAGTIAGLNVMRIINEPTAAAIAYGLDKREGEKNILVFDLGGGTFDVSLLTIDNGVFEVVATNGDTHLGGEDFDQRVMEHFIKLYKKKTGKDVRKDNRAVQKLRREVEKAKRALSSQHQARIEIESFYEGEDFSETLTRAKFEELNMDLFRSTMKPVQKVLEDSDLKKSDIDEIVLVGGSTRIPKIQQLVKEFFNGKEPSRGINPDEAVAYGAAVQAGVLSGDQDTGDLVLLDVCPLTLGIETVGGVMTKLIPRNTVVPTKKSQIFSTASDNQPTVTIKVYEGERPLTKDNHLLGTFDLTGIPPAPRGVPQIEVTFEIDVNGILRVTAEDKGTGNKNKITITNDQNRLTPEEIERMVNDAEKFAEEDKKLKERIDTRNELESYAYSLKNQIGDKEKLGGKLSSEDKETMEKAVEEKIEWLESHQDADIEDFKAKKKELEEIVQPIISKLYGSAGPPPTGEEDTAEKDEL

B1: human recombinant protein FKBP9 (TP322307, Origene) (natural protein, UniProt O95302 25-570, looked up)
chain: APVAGLGSDAELQIERRFVPDECPRTVRSGDFVRYHYVGTFPDGQKFDSSYDRDSTFNVFVGKGQLITGMDQALVGMCVNERRFVKIPPKLAYGNEGVSGVIPPNSVLHFDVLLMDIWNSEDQVQIHTYFKPPSCPRTIQVSDFVRYHYNGTFLDGTLFDSSHNRMKTYDTYVGIGWLIPGMDKGLLGMCVGEKRIITIPPFLAYGEDGDGKDIPGQASLVFDVALLDLHNPKDSISIENKVVPENCERISQSGDFLRYHYNGTLLDGTLFDSSYSRNRTFDTYIGQGYVIPGMDEGLLGVCIGEKRRIVVPPHLGYGEEGRGNIPGSAVLVFDIHVIDFHNPSDSISITSHYKPPDCSVLSKKGDYLKYHYNASLLDGTLLDSTWNLGKTYNIVLGSGQVVLGMDMGLREMCVGEKRTVIIPPHLGYGEAGVDGEVPGSAVLVFDIELLELVAGLPEGYMFIWNGEVSPNLFEEIDKDGNGEVLLEEFSEYIHAQVASGKGKLAPGFDAELIVKNMFTNQDRNGDGKVTAEEFKLKDQEAKHDEL
notes: also called purified FKBP9; source: bought: Origene (TP322307)
Kd: 271 nM
